# Starred links: 1 amine or outer side, 2 acyl side, 3 side chain; linkers in the order of their positions; H or OH if unused. Positions of bridges follow the written chain, without caps; N, C: chain ends. Non-standard residues stand in square brackets, D forms with d. Primed or numbered codes have the meaning given here. PyrS2″ = (S)-3-amino-1-((pent-4-en-1-yloxy)carbonyl)pyrrolidine-3-carboxylic acid (stapling residue), C=CCCCOC(=O)N1CC[C@@](N[*:1])(C(=O)[*:2])C1; B5(4) = 2,2-bis(4-pentenyl)glycine = 2-amino-2-(pent-4-en-1-yl)hept-6-enoic acid (stitching residue), C=CCCCC(CCCC=C)(N[*:1])C(=O)[*:2]; B5(3) = 2,2-bis(4-pentenyl)glycine (stitching residue), C=CCCCC(CCCC=C)(N[*:1])C(=O)[*:2]; AcLys″ = N6-acetyl-lysine, CC(=O)NCCCC[C@H](N[*:1])C(=O)[*:2]; Phe(3-COOH) = N[C@@H](Cc1cccc(C(=O)O)c1)C(=O)O; 2F3MeF = Cc1cccc(C[C@H](N[*:1])C(=O)[*:2])c1F; Phe(2-CF3) = N[C@@H](Cc1ccccc1C(F)(F)F)C(=O)O; AcLys = CC(=O)NCCCC[C@H](N[*:1])C(=O)[*:2]; Met(O2) = CS(=O)(=O)CC[C@H](N)C(=O)O; Bta = N[C@@H](Cc1csc2ccccc12)C(=O)O; Lys(iPr) = CC(C)NCCCC[C@H](N)C(=O)O; αAllylPro = C=CC[C@@]1(C(=O)O)CCCN1; tBuAla = CC(C)(C)C[C@H](N)C(=O)O; 3Thi = N[C@@H](Cc1ccsc1)C(=O)O; Cha = N[C@@H](CC1CCCCC1)C(=O)O; PyrS2(4) = not defined here; hSer = N[C@@H](CCO)C(=O)O; Nle = CCCC[C@H](N)C(=O)O
# T1: B-cat-Halo (beta-catenin HaloTag construct expressed in HEK293 cells) (UniProt P35222 1-781)
# T1 sequence (looked up): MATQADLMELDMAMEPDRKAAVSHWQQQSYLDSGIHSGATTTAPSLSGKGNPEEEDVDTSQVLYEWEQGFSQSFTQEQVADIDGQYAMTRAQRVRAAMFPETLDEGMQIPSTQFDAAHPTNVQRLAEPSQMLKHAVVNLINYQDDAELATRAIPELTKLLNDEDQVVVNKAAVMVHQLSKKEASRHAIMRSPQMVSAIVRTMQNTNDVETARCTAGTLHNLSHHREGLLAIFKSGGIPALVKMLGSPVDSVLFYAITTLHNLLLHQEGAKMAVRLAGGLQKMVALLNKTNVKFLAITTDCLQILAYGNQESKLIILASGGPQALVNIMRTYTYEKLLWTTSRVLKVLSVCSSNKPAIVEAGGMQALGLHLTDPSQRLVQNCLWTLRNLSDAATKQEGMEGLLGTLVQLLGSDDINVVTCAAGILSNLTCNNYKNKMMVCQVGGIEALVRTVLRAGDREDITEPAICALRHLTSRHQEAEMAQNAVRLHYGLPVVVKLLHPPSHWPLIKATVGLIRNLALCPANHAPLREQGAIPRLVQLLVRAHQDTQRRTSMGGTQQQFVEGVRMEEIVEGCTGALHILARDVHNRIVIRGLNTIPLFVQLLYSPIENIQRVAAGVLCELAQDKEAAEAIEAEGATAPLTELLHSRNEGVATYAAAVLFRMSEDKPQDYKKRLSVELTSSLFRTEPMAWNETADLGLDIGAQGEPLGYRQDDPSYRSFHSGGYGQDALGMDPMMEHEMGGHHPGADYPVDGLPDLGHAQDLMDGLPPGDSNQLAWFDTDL
# T2: B-cat-Halo (UniProt P35222 1-781, HaloTag NanoBRET 618 Ligand bound in the assay)
# T2 sequence (looked up): T1 sequence (looked up)
# B1: I-2055 (peptide)
# peptide: Ac-[αAllylPro]D[tBuAla][B5(4)]D[Phe(3-COOH)]QAFL[PyrS2(4)][3Thi][Bta]V-NH2
# modifications: staple 1-4, 4-11; reading uncertain; also: printed as Ac-PL3-Asp-Npg-B5-Asp-3COOHF-Gln-Ala-Phe-Leu-PyrS2-3Thi-BztA-Val-NH2
# B2: I-2053 (peptide)
# peptide: Ac-[αAllylPro]D[tBuAla][B5(3)]D[Phe(3-COOH)]QAFA[PyrS2(4)][3Thi][Bta]A-NH2
# modifications: staple 1-4, 4-11; reading uncertain; also: printed as Ac-PL3-Asp-Npg-B5-Asp-3COOHF-Gln-Ala-Phe-Ala-PyrS2-3Thi-BztA-Ala-NH2
# B3: I-2537 (peptide)
# peptide: Ac-[αAllylPro]D[tBuAla][B5(4)]D[Phe(3-COOH)]AAF[MorphGln][PyrS2″][2F3MeF][Bta][Me2Gln]-NH2
# modifications: staple 1-4, 4-11; not fully specified; printed as Ac-PL3-Asp-Npg-B5-Asp-3COOHF-Ala-Ala-Phe-MorphGln-PyrS2-2F3MeF-BztA-Me2Gln-NH2
# B4: I-2544 (peptide)
# peptide: Ac-[αAllylPro]D[tBuAla][B5(4)]D[Phe(3-COOH)]AAF[Me2Gln][PyrS2″][2F3MeF][Bta][MorphGln]-NH2
# modifications: staple 1-4, 4-11; not fully specified; printed as Ac-PL3-Asp-Npg-B5-Asp-3COOHF-Ala-Ala-Phe-Me2Gln-PyrS2-2F3MeF-BztA-MorphGln-NH2
# B5: I-2545 (peptide)
# peptide: Ac-[αAllylPro]D[tBuAla][B5(4)]D[Phe(3-COOH)]AAF[Me2Gln][PyrS2″][Phe(2-CF3)][Bta][MorphGln]-NH2
# modifications: staple 1-4, 4-11; not fully specified; printed as Ac-PL3-Asp-Npg-B5-Asp-3COOHF-Ala-Ala-Phe-Me2Gln-PyrS2-2F3MeF-BztA-MorphGln-NH2
# B6: I-2536 (peptide)
# peptide: Ac-[αAllylPro]D[tBuAla][B5(4)]D[Phe(3-COOH)]AAF[Me2Gln][PyrS2″][2F3MeF][Bta][Me2Gln]-NH2
# modifications: staple 1-4, 4-11; not fully specified; printed as Ac-PL3-Asp-Npg-B5-Asp-3COOHF-Ala-Ala-Phe-Me2Gln-PyrS2-2F3MeF-BztA-Me2Gln-NH2
# B7: I-2538 (peptide)
# peptide: Ac-[αAllylPro]D[tBuAla][B5(4)]D[Phe(3-COOH)]AAF[MorphGln][PyrS2″][Phe(2-CF3)][Bta][Me2Gln]-NH2
# modifications: staple 1-4, 4-11; not fully specified; printed as Ac-PL3-Asp-Npg-B5-Asp-3COOHF-Ala-Ala-Phe-MorphGln-PyrS2-2F3MeF-BztA-Me2Gln-NH2
# B8: I-2535 (peptide)
# peptide: Ac-[αAllylPro]D[tBuAla][B5(4)]D[Phe(3-COOH)]AAF[Me2Gln][PyrS2″][2F3MeF][Bta][Me2Gln]-NH2
# modifications: staple 1-4, 4-11; not fully specified; printed as Ac-PL3-Asp-Npg-B5-Asp-3COOHF-Ala-Ala-Phe-Me2Gln-PyrS2-2F3MeF-BztA-Me2Gln-NH2
# B9: I-2539 (peptide)
# peptide: Ac-[αAllylPro]D[tBuAla][B5(4)]D[Phe(3-COOH)]AAF[AcLys][PyrS2″][2F3MeF][Bta][Me2Gln]-NH2
# modifications: staple 1-4, 4-11; not fully specified; printed as Ac-PL3-Asp-Npg-B5-Asp-3COOHF-Ala-Ala-Phe-AcLys-PyrS2-2F3MeF-BztA-Me2Gln-NH2
# B10: I-2546 (peptide)
# peptide: Ac-[αAllylPro]D[tBuAla][B5(4)]D[Phe(3-COOH)]AAF[MorphGln][PyrS2″][2F3MeF][Bta][MorphGln]-NH2
# modifications: staple 1-4, 4-11; not fully specified; printed as Ac-PL3-Asp-Npg-B5-Asp-3COOHF-Ala-Ala-Phe-MorphGln-PyrS2-2F3MeF-BztA-MorphGln-NH2
# B11: I-2540 (peptide)
# peptide: Ac-[αAllylPro]D[tBuAla][B5(4)]D[Phe(3-COOH)]AAF[AcLys″][PyrS2″][Phe(2-CF3)][Bta][Me2Gln]-NH2
# modifications: staple 1-4, 4-11; not fully specified; printed as Ac-PL3-Asp-Npg-B5-Asp-3COOHF-Ala-Ala-Phe-AcLys-PyrS2-2F3MeF-BztA-Me2Gln-NH2
# Molecular target: T1, B-cat-Halo (beta-catenin HaloTag …)
# Assay: cell-based or functional assay
row,Binder,NanoBRET Abs IC50 [µM]
1,"Ac-[αAllylPro]D[tBuAla][B5(4)]D[Phe(3-COOH)]AAFL[PyrS2″][Phe(2-CF3)][Bta][Met(O2)]-NH2 (staple 1-4, 4-11) [I-2063]",3.5
2,"Ac-[αAllylPro]N[Cha][B5(4)]DQQAFN[PyrS2″]F[Bta]A-NH2 (staple 1-4, 4-11) [I-2070]",> 20
3,"Ac-[αAllylPro]N[Cha][B5(4)]DQQAFN[PyrS2″]F[Bta][hSer]-NH2 (staple 1-4, 4-11) [I-2067]",> 20
4,B1,10.5
5,"Ac-[αAllylPro]N[Cha][B5(4)]DQ[Lys(iPr)]AFN[PyrS2″]F[Bta]A-NH2 (staple 1-4, 4-11) [I-2065]",> 20
6,"Ac-[αAllylPro]D[tBuAla][B5(3)]D[Phe(3-COOH)]QAFF[PyrS2″][3Thi][Bta]A-NH2 (staple 1-4, 4-11) [I-2052]",6
7,"Ac-[αAllylPro]D[tBuAla][B5(4)]D[Phe(3-COOH)]QAFV[PyrS2″][3Thi][Bta]A-NH2 (staple 1-4, 4-11) [I-2054]",2.4
8,"Ac-[αAllylPro]D[tBuAla][B5(4)]D[Phe(3-COOH)]QAFL[PyrS2″][3Thi][Bta]L-NH2 (staple 1-4, 4-11) [I-2056]",6.5
9,B2,5
10,"Ac-[αAllylPro]D[tBuAla][B5(4)]D[Phe(3-COOH)][Met(O2)]AFL[PyrS2″][3Thi][Bta]A-NH2 (staple 1-4, 4-11) [I-2064]",11.8
11,"Ac-[αAllylPro]N[Cha][B5(4)]DQ[Lys(iPr)]AFN[PyrS2″]F[Bta]F-NH2 (staple 1-4, 4-11) [I-2068]",> 20
12,"Ac-[αAllylPro]D[tBuAla][B5(3)]D[Phe(3-COOH)]TAFL[PyrS2″][3Thi][Bta]A-NH2 (staple 1-4, 4-11) [I-2051]",8.3
13,"Ac-[αAllylPro]N[Cha][B5(4)]DQHAFN[PyrS2″]F[Bta]A-NH2 (staple 1-4, 4-11) [I-2069]",> 20

# Molecular target: T2, B-cat-Halo
# Assay: cell-based or functional assay
row,Binder,NanoBRET Abs IC50 [µM]
1,B3,2.9
2,B4,4.1
3,"Ac-[αAllylPro]D[tBuAla][B5(4)]D[Phe(3-COOH)]AAFF[PyrS2″][Phe(2-CF3)][Bta][Me2Gln]-NH2 (staple 1-4, 4-11) [I-2534]",4.4
4,B5,4
5,B6,4.5
6,B7,3.5
7,B8,3.7
8,"Ac-[αAllylPro]D[tBuAla][B5(4)]D[Phe(3-COOH)]AAFL[PyrS2″][Phe(2-CF3)][Bta][MorphGln]-NH2 (staple 1-4, 4-11) [I-2541]",4.7
9,B9,3.6
10,"Ac-[αAllylPro]D[tBuAla][B5(4)]D[Phe(3-COOH)]AAF[Nle][PyrS2″][Phe(2-CF3)][Bta][MorphGln]-NH2 (staple 1-4, 4-11) [I-2542]",4
11,"Ac-[αAllylPro]D[tBuAla][B5(4)]D[Phe(3-COOH)]AAF[Nle][PyrS2″][2F3MeF][Bta][Me2Gln]-NH2 (staple 1-4, 4-11) [I-2533]",6.2
12,B10,3.5
13,"Ac-[αAllylPro]D[tBuAla][B5(4)]D[Phe(3-COOH)]AAFF[PyrS2″][Phe(2-CF3)][Bta][MorphGln]-NH2 (staple 1-4, 4-11) [I-2543]",7.3
14,B11,3.5

# From patent publication US20240116985A1 (published 2024)
